From publication PMC3365061

Molecular target: K5,83R-JMD (mouse)
Experiment: co-IP; RFP chimeras immunoprecipitated with rabbit polyclonal anti-RFP on Protein A beads (Figure 2C also with E2 antibody to the E-cadherin cytoplasmic domain) from MDCK extracts, 0.1% Triton X-100 in CSK buffer (50 mM NaCl, 300 mM sucrose, 10 mM Pipes pH 6.8, 3 mM MgCl2), 4°C; stable or transient expression; with or without 10 µM MG-132 for 4 h, 10 mM NEM in the extraction buffer, Src-GFP or Hakai-FLAG expression; blots for p120-catenin and tubulin

fold amount co-immunoprecipitated, against WT-JMD: 10 fold | fold increase of the amount co-immunoprecipitated upon proteasome inhibition: 0.4 fold
Substance: p120-catenin (natural protein)
